The results in this text go back to patent publication WO2014037419A1 (dated 2014).

The target in assay [1] is T1, Mouse CD74 on cells (C57Black/6 PECs, MC-38, 3LL) (mouse) (UniProt P04441).
T1 sequence: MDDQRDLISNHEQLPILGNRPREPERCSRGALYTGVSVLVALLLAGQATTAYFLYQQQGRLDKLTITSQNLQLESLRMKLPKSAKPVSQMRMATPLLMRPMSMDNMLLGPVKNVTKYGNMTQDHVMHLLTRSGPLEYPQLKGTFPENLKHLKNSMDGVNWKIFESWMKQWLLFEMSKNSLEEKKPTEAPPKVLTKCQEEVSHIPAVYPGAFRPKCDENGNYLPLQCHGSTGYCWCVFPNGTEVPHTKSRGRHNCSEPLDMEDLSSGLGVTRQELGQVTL
Kind of assay: FACS, PECs of WT mice, APC-labeled MIF 200ng alone (cells without MIF: 22.4).

In assay [2] the target is T1, Mouse CD74 on cells (C57Black/6 PECs, MC-38, 3LL) (mouse). Nature of the assay: FACS, PECs of MIF-/- mice, APC-labeled MIF 200ng alone (cells without MIF: 25.6).
Assay [3] shares this target. Kind of assay: FACS, PECs of WT mice, APC-labeled MIF 200ng pre-incubated with the small molecule ISO-1 (20 nM).
Assay [4] has the same target. Kind of assay: FACS, PECs of MIF-/- mice, APC-labeled MIF 200ng pre-incubated with the small molecule ISO-1 (20 nM).
Assay [5] has the same target. Kind of assay: FACS competition, PECs of WT mice, APC-labeled MIF 200ng as competitor/tracer plus Nb_49 (5 ug or 0.3 nM).
The target is the same in assay [6]. Kind of assay: FACS competition, PECs of MIF-/- mice, APC-labeled MIF 200ng as competitor/tracer plus Nb_49 (5 ug or 0.3 nM).
Assay [7] concerns the target T2, Recombinant human CD74 73-232 (human, UniProt P04233 73-296).
T2 construct: Bought from R&D Systems (NP_004346.1); The entry includes the N-terminal hemagglutinin tag; also called R&D systems 3590-CD
T2 sequence: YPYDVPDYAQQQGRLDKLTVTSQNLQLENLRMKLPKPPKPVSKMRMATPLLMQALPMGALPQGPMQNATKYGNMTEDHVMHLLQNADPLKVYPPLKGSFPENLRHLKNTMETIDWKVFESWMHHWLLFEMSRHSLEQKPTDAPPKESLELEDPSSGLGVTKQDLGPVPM
Kind of assay: BIAcore SPR, biotinylated Nb_49 on streptavidin chip, recombinant human CD74 73-232 at 0.05-500 nM as analyte.

B1: Recombinant human MIF 2-115 (ligand)
chain: PMFIVNTNVPRASVPDGFLSELTQQLAQATGKPPQYIAVHVVPDQLMAFGGSSEPCALCSLHSIGKIGGAQNRSYSKLLCGLLAERLRISPDRVYINYYDMNAASVGWNNSTFA
Take B1: the mean fluorescence intensity of APC-labeled MIF bound to the cells worked out at 64.8 in assay [1], 120 in assay [2], 49.9 in assay [3] and 61 in assay [4].

B2: NbhCD74n49 (VHH)
VHH: QVQLQESGGGSVQAGGSLRLSCVASGLVYSLKAYDWGWARQAPGKECELVGRIMPNGATVYIDSVKGRFIISRENSNNTVYLQMNSLKFEDTAVYYCARVGDPSGGWCKGQGTQVTVSS
notes: also called Nb_49; NB_49
For the molecule B2, in assay [5], the mean fluorescence intensity of APC-labeled MIF bound to the cells was 46.2. Moreover, the mean fluorescence intensity of APC-labeled MIF bound to the cells in assay [6] was found to be 69.4. Besides, in assay [7], the Kd amounted to 5.73 nM, the koff turned out to be 0.000581 s⁻¹ and the kon was 102000 M⁻¹ s⁻¹.
